Experimental data published in patent US20240209086A1 (PETMEDIX, published 2024).
Where a chain is given by its changes, count along the chain named.

B1: PMX194 (monospecific anti-canine CD3, canine IgG-B effector function deficient Fc) (antibody, V domains shown)
VH: EVQLVESGGDLVKPGGSLRLSCVASGFTFSNYHMSWVRQAPGKGLQWVAYSNSGRMSTDYADAVKGRFTISRDNAKNTLYLQMNSLRPEDTAVYYCATVIYGLFDYWGQGTLVTVSS
VL: DIVMTQTPLSLSVSPGEPASISCKASQSLLYSNGNTYLYWFRQKPGQSPQRLIYKVSKRDSGVPDRFSGSGSGTDFTLRIRRVEADDAGVYYCGQGTQDPYTFSQGTKLEIK
B2: PMX179 (monospecific anti-canine CD3, canine IgG-B effector function deficient Fc) (antibody, V domains shown)
VH: ELALQESGPGLVRPSQTLSLTCVVSGGSVTRSYYWNWIRQRPGRGLEWMGYWTGTTIYNPAFQGRISITVDTAKNQFSLHLISMTTEDTAVYYCGREGGSSLGAIAYWGQGTRVTVSS
VL: SYVLTQLPSKNVTLKQPAHITCGGDNIGSKSVHWYQQKLGQAPVLIIYYDSSRPTGIPERFSGANSGNTATLTISGALAEDEADYYCQVWDSSAKAAVFGGGTHLTVL
B3: PMX183 (monospecific anti-canine CD3, canine IgG-B effector function deficient Fc) (antibody, V domains shown)
VH: ELTLQESGPGLVKPSQTLSLTCVVSGGSVTNSYYWNWIRQRPGRELEWMGYWTGGTKYNPAFQGRISISADTAKNQFSLQLTSMTTEDTAVYYCARDRDRRVPHAYGYWGQGTLVTVSS
VL: B2 VL with A97S
B4: PMX182 (monospecific anti-canine CD3, canine IgG-B effector function deficient Fc) (antibody)
heavy: EVQLVESGGDLVKPGGSLRLSCVTSGFTFSNYHMNWVRQAPGKGLQWVAYINSGGSSTSYADAVKGRFTISRDNAKNTLYLQMNSLRAEDTAMYYCASDWDYCADDTCEGMGYWGHGTSLFVSSASTTAPSVFPLAPSCGSTSGSTVALACLVSGYFPEPVTVSWNSGSLTSGVHTFPSVLQSSGLYSLSSMVTVPSSRWPSETFTCNVAHPASKTKVDKPVPKRENGRVPRPPDCPKCPAPESLGGPSVFIFPPKPKDTLLIARTPEVTCVVVDLGREDPEVQISWFVDGKQMQTAKTQPREEQFNGTYRVVSVLPIGHQDWLKGKQFTCKVNHIGLPSPIERTISKARGQAHQPSVYVLPPSREELSKNTVSLTCLIKDFFPPDIDVEWQSNGQQEPESKYRTTPPQLDEDGSYFLYSKLSVDKSRWQRGDTFICAVMHEALHNHYTQKSLSHSPGK
VL: B2 VL with A97W, G101E, H104Q
B5: PMX180 (monospecific anti-canine CD3, canine IgG-B effector function deficient Fc) (antibody, V domains shown)
VH: ELTLQESGPGLVKPSQTLSLTCVVSGGSVTSNYYWNWIRQRPGRGLEWMGYWTGSTNYNPAFQGRISITADTAKKQFSLQLRSMTIEDTAVYYCARRGIPIFFDYWGQGTLVTVSS
VL: SYVLTQLPSKNVTLKQPAHITCGGDNIGSKSVHWYQQKLGQAPVLIIYYDSSRPTGIPERFSGANSGNTATLTISGALAEDEADYYCQVWDSSASVFGGGTHLTVL
B6: PMX181 (monospecific anti-canine CD3, canine IgG-B effector function deficient Fc) (antibody, V domains shown)
VH: ELTLQESGPGLVKPSQTLSLTCIVSGGSVTNNYYWTWIRQRPGRGLEWMGYWTGFTNYNPAFQGRISIIANTAKKQLSLQLSSLTTEDTAVYYCARRAIPTYFDYWGQGTLVTVSS
VL: B5 VL with K30R
B7: PMX193 (monospecific anti-canine CD3, canine IgG-B effector function deficient Fc) (antibody, V domains shown)
VH: EVQLVESGGDLVKPGGSLRLSCVASGFTFSTYHMSWVRQAPGKGLQWVAYISSGGSRTNYADAVKGRFTISRDNAKNTLYLQMNSLRAEDAAVFYCARHYGSSLFDYWGQGTLVTVSS
VL: DIVMTQTPLSLSVSPGEPASISCKASQSLLHINGNTYLYWFRQKPGQSPQRLIYKVSNRDPGVPDRFSGSGSGTDFTLRISRVEADDAGVYYCGQGIQDPTFGKGTHLEIK

Molecular target: canine CD3 on canine T cells (canine PBMC) (canine, UniProt P27597 22-202)
Sequence (P27597 22-202 limits assumed, chain 1 of 3): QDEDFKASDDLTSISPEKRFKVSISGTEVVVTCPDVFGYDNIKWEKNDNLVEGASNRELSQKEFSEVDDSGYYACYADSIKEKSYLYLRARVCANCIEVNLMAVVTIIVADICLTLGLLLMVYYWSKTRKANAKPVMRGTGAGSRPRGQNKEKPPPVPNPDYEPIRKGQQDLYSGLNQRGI
Sequence (chain, as listed by the source limits assumed, chain 2 of 3): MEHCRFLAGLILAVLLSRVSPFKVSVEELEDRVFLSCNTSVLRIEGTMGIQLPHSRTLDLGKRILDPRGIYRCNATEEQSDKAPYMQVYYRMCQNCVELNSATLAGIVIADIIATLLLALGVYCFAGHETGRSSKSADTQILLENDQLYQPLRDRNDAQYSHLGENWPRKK
Sequence (chain, as listed by the source limits assumed, chain 3 of 3): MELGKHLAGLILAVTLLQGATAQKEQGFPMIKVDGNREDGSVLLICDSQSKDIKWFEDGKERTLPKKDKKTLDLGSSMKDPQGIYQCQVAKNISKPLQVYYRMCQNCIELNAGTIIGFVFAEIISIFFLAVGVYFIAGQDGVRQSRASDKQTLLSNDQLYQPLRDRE
Test: cell-based or functional assay

| Binder | CD25 Activation, Day 6, IS | CD25 Activation, Day 6, PB | CD25 Activation, Day 9, IS | CD25 Activation, Day 9, PB | IFNy Concentration pg/ml, Day 6, IS | IFNy Concentration pg/ml, Day 9, IS | IFNy Concentration pg/ml, Day 9, PB | Ki67 Proliferation, Day 6, IS | Ki67 Proliferation, Day 6, PB | Ki67 Proliferation, Day 9, IS | Ki67 Proliferation, Day 9, PB |
| --- | --- | --- | --- | --- | --- | --- | --- | --- | --- | --- | --- |
| B1 | 13 | 17.3 | 7.96 | 17.1 | 133 pg/mL | 170 pg/mL | 568 pg/mL | 1.46 | 0.21 | 1.49 | 1.11 |
| B2 | 8.73 | 22 | 10.9 | 22.9 | 43.4 pg/mL | 162 pg/mL | 2750 pg/mL | 1.27 | 0.48 | 2.06 | 0.31 |
| B3 | 13.3 | 13.6 | 10.1 | 13.3 | 63.7 pg/mL | 153 pg/mL | 145 pg/mL | 1.61 | 0.36 | 1.99 | 0.48 |
| B4 | 7.88 | 5.89 | 14.6 | 21.4 | 50.2 pg/mL | 1340 pg/mL | 1470 pg/mL | 2.01 | 0.7 | 1.72 | 1.55 |
| B5 | 10.7 | 8.6 | 13.9 | 17 | 55.5 pg/mL | 318 pg/mL | 773 pg/mL | 1.2 | 0.21 | 1.77 | 0.58 |
| B6 | 10.6 | 5.68 | 9.09 | 23.9 | 33.1 pg/mL | 118 pg/mL | 1690 pg/mL | 2.15 | 0.55 | 2.69 | 0.7 |
| B7 | 8.3 | 11.1 | 12.6 | 16.1 | 52.6 pg/mL | 544 pg/mL | 401 pg/mL | 0.64 | 0.11 | 1.53 | 0.18 |
